Test results: patent CN116836268A

B1: S4B3VH-h2+L1C9VK-mIgG2a (antibody, V domains shown)
VH: QVQLVQSGAEVKKPGSSVKVSCKASGYIFNSYSIHWVRQAPGQGLEWIGAIYPGNGDTSNSQRFKGKATITADKSASTAYMELSSLRSEDTAVYYCARDGYDDSYGLDYWGQGTTVTVSS
VL: DIQLTQSPSTLSASVGDRVTITCRASQNIGGWLAWYQQKPGKAPNLLIYQASTLESGVPSRFSGSGSGTEFTLTISSLQAEDFATYHCQQYSGFPWTFGQGTKVEIKR
B2: S4B3VH-h1+L1B2VK-mIgG2a (antibody, V domains shown)
VH: QVQLVQSGAEVKKPGSSVKVSCKASGYIFNSYSIHWVRQAPGQGLEWIGAIYPGNGDTSNSQRFKGRVTITADKSTSTAYMELSSLRSEDTAVYYCARDGYDDSYGLDYWGQGTTVTVSS
VL: DIQMTQSPSSLSASVGDRVTITCRASQNIHNYLDWYQQKPGKAPKLLIYSASSRETGVPSSFSGSGSGTDFTLTISSLQPEDFATYYCQQFQQIPWTFGQGTKVEIKR
B3: S4B3VH-h2+S4B3VK-h1-mIgG2a (antibody, V domains shown)
VH: QVQLVQSGAEVKKPGSSVKVSCKASGYIFNSYSIHWVRQAPGQGLEWIGAIYPGNGDTSNSQRFKGKATITADKSASTAYMELSSLRSEDTAVYYCARDGYDDSYGLDYWGQGTTVTVSS
VL: DIVMTQSPDSLAVSLGERATINCKASQNVGTNVAWYQQKPGQPPKALIYSASYRYSGVPDRFSGSGSGTDFTLTISSLQAEDVAVYFCQQYNSYPLTFGQGTKLEIKR
B4: S4B3VH-h1+S4B3VK-h1-mIgG2a (antibody, V domains shown)
VH: QVQLVQSGAEVKKPGSSVKVSCKASGYIFNSYSIHWVRQAPGQGLEWIGAIYPGNGDTSNSQRFKGRVTITADKSTSTAYMELSSLRSEDTAVYYCARDGYDDSYGLDYWGQGTTVTVSS
VL: DIVMTQSPDSLAVSLGERATINCKASQNVGTNVAWYQQKPGQPPKALIYSASYRYSGVPDRFSGSGSGTDFTLTISSLQAEDVAVYFCQQYNSYPLTFGQGTKLEIKR
B5: S4B3VH-h1+L1C9VK-mIgG2a (antibody, V domains shown)
VH: QVQLVQSGAEVKKPGSSVKVSCKASGYIFNSYSIHWVRQAPGQGLEWIGAIYPGNGDTSNSQRFKGRVTITADKSTSTAYMELSSLRSEDTAVYYCARDGYDDSYGLDYWGQGTTVTVSS
VL: DIQLTQSPSTLSASVGDRVTITCRASQNIGGWLAWYQQKPGKAPNLLIYQASTLESGVPSRFSGSGSGTEFTLTISSLQAEDFATYHCQQYSGFPWTFGQGTKVEIKR
B6: S4B3VH-h2+L1B2VK-mIgG2a (antibody, V domains shown)
VH: QVQLVQSGAEVKKPGSSVKVSCKASGYIFNSYSIHWVRQAPGQGLEWIGAIYPGNGDTSNSQRFKGKATITADKSASTAYMELSSLRSEDTAVYYCARDGYDDSYGLDYWGQGTTVTVSS
VL: DIQMTQSPSSLSASVGDRVTITCRASQNIHNYLDWYQQKPGKAPKLLIYSASSRETGVPSSFSGSGSGTDFTLTISSLQPEDFATYYCQQFQQIPWTFGQGTKVEIKR

Molecular target: Cov-S-His (SARS-CoV-2)
Assay: SPR, Biacore T200, antibody captured by anti-mouse Fc, Cov-S-His as analyte

| Binder | Kd [nM] |
| --- | --- |
| B1 | 5.76 |
| B2 | 2.86 |
| B3 | 23.9 |
| B4 | 14.5 |
| B5 | 5 |
| B6 | 3.04 |
